Paper PMC11403483 (The Journal of Biological Chemistry, 2024)

Columns and labels:
native PSG1 = native PSG1 (human (endogenous in serum of pregnant …, UniProt P11464 35-419)); experiment: SPR
[1] = biological target: recombinant PSG1 (pregnancy-specific glycoprotein 1) (human, UniProt P11464 35-419, complex N-linked glycans); experiment: SPR
Chain of recombinant PSG1 (pregnancy-specific glycoprotein 1) (P11464 35-419): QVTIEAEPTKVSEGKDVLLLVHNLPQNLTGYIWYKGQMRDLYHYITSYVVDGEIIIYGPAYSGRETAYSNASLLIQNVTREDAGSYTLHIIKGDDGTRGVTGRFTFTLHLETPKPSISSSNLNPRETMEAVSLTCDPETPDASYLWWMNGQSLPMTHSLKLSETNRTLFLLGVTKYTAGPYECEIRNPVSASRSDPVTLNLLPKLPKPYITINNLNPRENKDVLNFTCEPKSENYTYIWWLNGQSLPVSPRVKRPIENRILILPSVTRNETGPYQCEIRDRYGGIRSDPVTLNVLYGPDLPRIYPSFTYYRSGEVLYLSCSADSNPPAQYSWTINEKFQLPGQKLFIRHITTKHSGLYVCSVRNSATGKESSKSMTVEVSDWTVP

Chain of native PSG1 (human (P11464 35-419): as above

B1: recombinant human galectin 9 (natural protein, UniProt O00182-2 1-323, looked up)
chain: MAFSGSQAPYLSPAVPFSGTIQGGLQDGLQITVNGTVLSSSGTRFAVNFQTGFSGNDIAFHFNPRFEDGGYVVCNTRQNGSWGPEERKTHMPFQKGMPFDLCFLVQSSDFKVMVNGILFVQYFHRVPFHRVDTISVNGSVQLSYISFQPPGVWPANPAPITQTVIHTVQSAPGQMFSTPAIPPMMYPHPAYPMPFITTILGGLYPSKSILLSGTVLPSAQRFHINLCSGNHIAFHLNPRFDENAVVRNTQIDNSWGSEERSLPRKMPFVRGQSFSVWILCEAHCLKVAVDGQHLFEYYHRLRNLPTINRLEVGGDIQLTHVQT
Kd (native PSG1): 40.3 nM | koff (native PSG1): 0.0016 s⁻¹ | kon (native PSG1): 39000 M⁻¹ s⁻¹ | Kd [1]: 21.6 nM | koff [1]: 0.00156 s⁻¹
